Patent US11596620B2, “Formulations with reduced oxidation” (Genentech, Inc., priority 2013, dated 2023)

How the values were obtained:
Type in all cases: physicochemical, human
mAb1 [1] = assay: Light stress of mAb1 formulation (eight hours at 250 W/m^2), papain digest RP-HPLC; details: eight hours of light at 250 W/m^2
Description: L-tryptophan (L-Trp), an antioxidant used in protein formulations, has been recently shown to be photosensitive (Igarashi et al., Anal Sci 23(8):943-8 (2007)) and to have the ability to produce H2O2 upon light exposure. […] Control vials were wrapped in aluminum foil and treated similarly. After light exposure, solutions were prepared for analysis by reverse-phase HPLC. […] Following incubation, 900 μL of the solution was combined with 100 μL of 1 M dithiothreitol (DTT) and incubated for another thirty minutes at 37° C. Samples were then run on an Agilent, Inc. 1100/1200 HPLC system (Santa Clara, Calif.) equipped with UV detection at 280 nm in conjunction with a Varian, Inc. Pursuit 3 μm, 2 mm ID×250 mm diphenyl column (Palo Alto, Calif.). Mobile Phase A was 0.1% TFA in water. Mobile Phase B was 0.1% TFA in acetonitrile. The mobile phase gradient increased linearly from 34% B at 0 minutes to 43% B at 50.0 minutes, then to 95% B at 50.1 minutes. The gradient remained at 95% B until 60.1 minutes, and then decreased linearly from 95% B to 34% B between 60.1 and 60.2 minutes. The gradient remained at 34% B until the end of the cycle at 80.2 minutes. The column temperature was 65° C., total flow rate was 0.2 mL/min, and injection volume of each sample was 6 μL. Chromatograms were then integrated for quantification of oxidation.

mAb1 [2] = assay: mAb1 light stress study (16 hours at 250 W/m^2), RP-HPLC; details: 16 hours of light at 250 W/m^2
Description: The fragments were reduced with DTT, and then separated and identified via Liquid Chromatography-Mass Spectrometry (LC-MS). […] Comparison of area integrated under the oxidized and native peaks was used to quantify HC Fab and Fc oxidation. […] By using the papain digest RP-HPLC method in the present study it was possible to investigate Trp residue oxidation by quantifying HC Fab oxidation, and Met residue oxidation by quantifying HC Fc oxidation.
Antioxidants were added at 1 mM. Glass vials containing these formulations were exposed to 250 W/m^2 light in an Atlas SunTest CPS+ Xenon Test Instrument (Chicago, Ill.). Control vials were wrapped in aluminum foil and treated similarly. After light exposure, solutions were prepared for analysis by reverse-phase HPLC as described above.

mAb1 [3] = assay: mAb1 Fenton stress study (H2O2 + Fe), RP-HPLC; details: 10 ppm H2O2 and 0.2 mM Fe(III), 40° C. for 3 hours; no excipient
Description: Antioxidants were added at a final concentration of 1 mM. […] After incubation, each reaction was quenched by addition of 100 mM L-Met and then prepared for analysis by reverse-phase HPLC as described above.
The Fenton reaction, using a mixture of H2O2 and Fe ions, generates oxidation through a metal catalyzed, hydroxyl radical reaction (Prousek et al., Pure and Applied Chemistry 79(12):2325-2338 (2007)). This reaction generated Fab, i.e. tryptophan, oxidation in mAb1. The reaction was also carried out in the presence of select antioxidants that were useful against both AAPH and light induced oxidation as reported above. Data related to the antioxidant properties against Fenton mediated reaction were analyzed using the RP-HPLC assay as described above. The Fenton reaction used 10 ppm of H2O2 and 0.2 mM of Fe(III). The reaction was incubated at 40° C. for 3 hours, quenched with 100 mM L-Met and analyzed using RP-HPLC after papain digest. All samples were the average of three separate vials, and mAb1 control (Ref Mat) was one vial with five independent injections on the HPLC. […] In regards to protection against Fc oxidation, the tested excipients (other than salicylic acid) performed slightly better than L-Trp.

## drozitumab [mAb1]
mAb1 [1]; no excipient, or 10, 25, 50 and 100 mM L-Met added to 1 mM L-Trp
  Fc oxidation, effect in words: only a minor increase in Fc oxidation
mAb1 [1]; mAb1 5 mg/mL, no excipient or 1 mM L-Trp, reference material and foil control about 2%
  Fab oxidation: 4%
mAb1 [2]; excipient 1 mM or none
  Fab oxidation increase over the control level (mAb1 Ref Mat): 3.5 fold
mAb1 [2]; no excipient
  Increase in Fc oxidation over the control level: 40%
mAb1 [3]
  Oxidation in the Fab region over the control: about four times
